Assay results from patent US20250333515A1 (VOR BIOPHARMA, published 2025).

T1: CLL-1 on the surface of CLL-1-positive AML cell lines (HL-60 WT, U937) (human, UniProt Q5QGZ9 1-265)
T1 construct: whole, on cells; also called HL-60 WT cells; U937 cells
T1 sequence (looked up): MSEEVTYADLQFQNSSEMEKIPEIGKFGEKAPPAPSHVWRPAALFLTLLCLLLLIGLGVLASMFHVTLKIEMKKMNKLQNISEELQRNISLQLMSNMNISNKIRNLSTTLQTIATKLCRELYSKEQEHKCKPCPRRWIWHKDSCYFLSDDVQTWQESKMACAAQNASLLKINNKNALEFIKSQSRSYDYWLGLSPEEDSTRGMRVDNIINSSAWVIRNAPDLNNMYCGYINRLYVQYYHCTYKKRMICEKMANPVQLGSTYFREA

T2: biotinylated recombinant CLL-1 protein (UniProt Q5QGZ9 65-265, limits assumed, biotinylated (site not stated))
T2 construct: also called CLEC12A
T2 sequence (looked up): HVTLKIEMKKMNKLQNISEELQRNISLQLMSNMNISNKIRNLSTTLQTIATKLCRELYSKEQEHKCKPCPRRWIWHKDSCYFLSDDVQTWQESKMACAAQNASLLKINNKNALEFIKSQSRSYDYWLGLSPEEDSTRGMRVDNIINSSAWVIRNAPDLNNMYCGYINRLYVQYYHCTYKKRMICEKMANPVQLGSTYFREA

B1: Anti-CLL-1 Binder Clone 2 (scFv)
scFv: QSVLTQPLSVSVALGQTARITCGGNNIGSKNVHWYQQKAGQAPVLVIQRDSNRPSGIPERFSGSNSGNTATLTISRAQAGDEADYFCQVWDSNTYVFGTGTKLTVLGGGGSGGGGSGGGGSEVQLVESGGGLVKPGGSLRLSCAASGFTFSDYYMSWIRQAPGKGLEWVSYISSSGSTIYYADSVKGRFTISRDNAKNSLYLQMNSLRDEDTAVYYCARQSAEIVGAFDHWGQGTMVTVSS
notes: scFv (VL-linker-VH); not shown: FLAG tag
B2: Anti-CLL-1 Binder Clone 40 (scFv)
scFv: QSVLTQPPSVSAAPGQKVTISCSGSSSNIGNNYVSWYQQLPGTAPKLLIYDNNKRPSGIPDRFSGSESGTSATLGITGLQTGDEADYYCGTWDSSLSAWVFGGGTQLIILGGGGSGGGGSGGGGSQVQLQQSGPGLVKPSQTLSLTCAISGDSVSSNSAAWNWIRQSPSRGLEWLGRTHYRSKWYNDYAVSVKSRITISADTSKNQFSLQLNSVTPEDTAVYYCARDRYTVRPDAFDIWGQGTTVTVSS
notes: as for B1
B3: Anti-CLL-1 Binder Clone 1 (scFv)
scFv: SYVLTQPPSVSVAPGQTARITCGGNNIGSKSVHWYQQKPGQAPVLVVYDDSDRPSGIPERFSGSNSGNTATLTISRVEAGDEADYYCQVWDSSSDHPVFGGGTQLIILGGGGSGGGGSGGGGSQVQLVQSGAEVKKPGSSVKVSCKASGGTFSSYAISWVRQAPGQGLEWMGRIIPILGIANYAQKFQGRVTITADESTSTAYMELSSLRSEDTAVYYCAREKDDILTGAYYYGMDVWGQGTTVTVSS
notes: scFv (VL-linker-VH) from a fully human scFv phage library; not shown: FLAG tag
B4: Anti-CLL-1 Binder Clone 11 (scFv)
scFv: QSVLTQPASVSGSPGQSITISCTGTSSDVGASNSVSWYQRHPGKPPKLMIYDVSNRPSGISNRFSGSKSGNTASLTISGLQSEDEADYYCSSYTGSSTFVVFGGGTQLIILGGGGSGGGGSGGGGSEVQLVESGGGVVQPGGSLRLSCAASGFTFSSYWMSWVRQAPGKGLEWVANIRQDGSEKYYVDSVKGRFTISRDNAKNSLYLQMNSLRAEDAAVYYCAREQDTAMVAFDYWGQGTLVTVSS
notes: as for B1
B5: Anti-CLL-1 Binder Clone 20 (VHH)
VHH: QVQLVQSGGGLVQPGGSLRLSCAASDFSFSYYEMSWVRQAPGKGLEWVSTISGSGDSTYYADSVKGRFTISRDNTKNTLYLQMNTLRAEDTATYYCMTDGETWGTHRYTVYWGQGALVTVSS
notes: also called 20 VH; VH clone 20; not shown: FLAG tag
B6: Anti-CLL-1 Binder Clone 38 (scFv)
scFv: DIQMTQSPSTLSASVGDRVTITCRASQSISSWLAWYQQKPGKAPKLLIYTASSLQSGVPSRFSGSESGTDFTLTISSLQPEDFATYYCQQSYSTPLTFGGGTKVDIKGGGGSGGGGSGGGGSQVQLVQSGAEVKKPGASVKVSCKASGYTFTGYYMHWVRQAPGQGLEWMGWINPNSGGTNYAQKFQGRVTLTRDTSITTAYLELTSLTSDDTAVYYCARGDTGDFFDHWGQGTLVTVSS
notes: as for B1
B7: Anti-CLL-1 Binder Clone 4 (scFv)
scFv: QSVVTQPPSVSAAPGQKVTISCSGSSPNIGKNYVSWYQQLPGTAPKLLIYDNNKRPSGIPDRFSGSKSGTSATLGITGLQTGDEADYYCGTWDSSLSGYVFGTGTKVTVLGGGGSGGGGSGGGGSQVQLVESGGGVVQPGRSLRLSCAASGFTFSSYGMHWVRQAPGKGLEWVAFISHDGSNKYYADSVKGRSTISRDNSKSTLFLQMNSLRDEDTAVYFCAREGQLTTSWDFFDYWGHGTLVTVSS
notes: as for B1
B8: Anti-CLL-1 Binder Clone 42 (scFv)
scFv: EIVLTQSPATLSLSPGERATLSCRASQSVSSYLAWYQQKPGQAPRLLIYDASNRATGIPDRFSGSGSGTDFTLTISRLEPEDFAVYYCQQYGSSPVTFGQGTKLEIKGGGGSGGGGSGGGGSQVQLVQSGAEVKKPGSSVKVSCKASGGTFSSYAISWVRQAPGQGLEWMGGIIPIFGTANYAQKFQGRVIMTTDTSTSTAHMELRSLRSDDTAVYYCARDADEFGAFDIWGQGTTVTVSS
notes: as for B1
B9: Anti-CLL-1 Binder Clone 12 (scFv)
scFv: DIQMTQSPSSLSASVGDRVTITCQASQDISNYLNWYQQKPGKAPKLLIYDASNLETGVPSRFSGSGSGTDFTLTISSPQPEDLATYYCQQANSFPFTFGQGTKVEIKGGGGSGGGGSGGGGSQVQLVQSGAEVKKPGSSVKVSCKASGYSFTRNDITWVRQANGRGLEWLGRLNPNNGDTVYAEVFQGRVAMTRDTSTDTAYMELASLKSDDTAVYFCARGFWSFDVWGQGTMVTVSS
notes: as for B1
B10: Anti-CLL-1 Binder Clone 10 (scFv)
scFv: DIQMTQSPSFLSASVGDRVTITCRASQGISSYLAWYQQKPGKAPKLLIYSASSLQSGVPSRFSGSGSGTDFTLTISSLQPEDFATYYCQQSYNSPTFGQGTRLEIKGGGGSGGGGSGGGGSQVQLVQSGAEVKKPGASVKVSCKASGYTFTGYYMHWVRQAPGQGLEWMGWMNPNSGNTGYAQKFQGRVTMTRNTSISTAYLELTSLTSDDTAVYYCARGDTGDFFDHWGQGTLVTVSS
notes: as for B1
B11: Anti-CLL-1 Binder Clone 6 (scFv)
scFv: QSVLTQPPSVSAAPGQKVSIFCSGGSSNIGKNYVSWYQQLPGTAPKLLIYENQHRPSGIPDRFSGSKSGTSATLGITGLQTGDEADYYCATWDDSLSAGVFGGGTELTVLGGGGSGGGGSGGGGSQLVQSGAEVRKPGESLKISCKGSGYSFTSYWIGWVRQMPGKGLEWMGFIYPGDSDTRYSPSFQGQVTISADKSISTAYLQRSSLKASDTAMYYCARLGGYSGYDSEVFYLDYWGQGTTVTVSS
notes: as for B1

The binders below were run against T1, CLL-1 on the surface of CLL-1-positive … (assay: flow cytometry, HL-60 WT, 200 nM; secondary only 5600).
Description: (§1) HL60 WT, U937, or HL-60 CLL-1 knockout (KO) control cells were counted, washed in PBS and mixed with 1 ml of Fixable Viability dye eFluor 780 (diluted at 1:1000 in PBS) then incubated at room temperature for 10 minutes to distinguish Live/Dead cells. Subsequently the cells were washed once with FACS Buffer (PBS with 2% FBS) and incubated with human TruStain FcX™ (Fc block diluted at 1:10 in FACS buffer) at room temperature for 5 minutes. Fc blocked cells were stained with 50 μL of the primary CLL-1 antibody (at 200 nM concentrations) and incubated at 4° C. for 30 minutes in the dark. Cells were subsequently stained with 100 μL of secondary antibody (AF488 Rabbit anti-FLAG-tag diluted at 1:1000) incubated at 4° C. for 30 minutes in the dark. Cells were washed and flow cytometric analysis was performed using flow cytometry and data analysis was performed using FlowJo.

| Binder | Geometric Mean : B530-H |
| --- | --- |
| B1 | 11100 |
| B2 | 23100 |
| B3 | 18100 |
| B4 | 20500 |
| B5 | 9110 |
| B6 | 19800 |
| B7 | 11600 |
| B8 | 10400 |
| B9 | 11800 |
| B10 | 24900 |
| B11 | 9390 |

These binders were tested against T1, CLL-1 on the surface of CLL-1-positive … (assay: flow cytometry, U937, 200 nM; last table names out of step).
Description: as §1

| Binder | Geometric Mean : B530-H |
| --- | --- |
| B1 | 50800 |
| B3 | 46300 |
| B4 | 60200 |
| B5 | 27000 |
| B6 | 55300 |
| B7 | 33600 |
| B8 | 29000 |
| B9 | 59600 |
| B10 | 52100 |
| B11 | 34300 |

The binders below were run against T2, biotinylated recombinant CLL-1 protein (assay: ELISA; biotinylated CLL-1 on neutravidin plate, FLAG-tagged binder, anti-FLAG HRP).
Description: Dose-depending binding activities were analyzed by ELISA. COSTAR® microtiter plates were coated with 1 μg/mL neutravidin protein. Following washing, neutravidin-coated wells were seeded with 100 nM of biotinylated recombinant CLL-1 protein. Following washing, purified FLAG-tagged CLL-1 antibody binders were added to the wells and subsequently detected by mouse anti-FLAG tag HRP conjugate (Sigma).

| Binder | EC50 |
| --- | --- |
| B1 | 0.9 nM |
| B2 | 0.5 nM |
| B3 | 3.4 nM |
| B4 | 1.4 nM |
| B5 | 4.7 nM |
| B6 | 0.6 nM |
| B7 | 1.4 nM |
| B8 | 1.5 nM |
| B9 | 3.7 nM |
| B10 | 1.1 nM |
| B11 | 0.9 nM |

These binders were tested against T1, CLL-1 on the surface of CLL-1-positive … (assay: multi-point flow cytometry on HL-60 WT cells, FLAG-tagged binder, anti-FLAG AlexaFluor 488).
Description: Target cell staining was assessed relative to control samples comprising cells stained with secondary antibodies only (see FIG. 6). Multi-point FACS via flow cytometry was performed to assess dose-depending binding of CLL-1 antibody binders to the cell surface of HL-60 WT cells. Un-fixed, un-permeabilized cells were incubated with various concentrations of purified FLAG-tagged anti-CLL-1 antibody clones and cell-surface binding was detected by subsequent incubation in the presence of rabbit anti-FLAG tag antibody AlexaFluor 488-conjugate antibody (R&D Systems).

| Binder | EC50 |
| --- | --- |
| B1 | 1.8 nM |
| B2 | 11.4 nM |
| B3 | 3.2 nM |
| B4 | 0.2 nM |
| B6 | 1.6 nM |
| B7 | 6.4 nM |
| B8 | 2.2 nM |
| B9 | 0.2 nM |
| B10 | 0.2 nM |
| B11 | 59 nM |
